Values joined by “and” are separate entries in the source; they are usually repeats but may differ in a detail not shown here. Equal entries are not always repeated.

One series deals with T1, S100b (S100) (Homo sapiens, UniProt P04271).
T1 sequence (P04271 1-92): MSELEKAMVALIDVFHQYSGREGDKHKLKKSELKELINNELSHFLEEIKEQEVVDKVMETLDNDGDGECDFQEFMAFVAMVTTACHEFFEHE
Description: In vitro ligand binding ELISA, immobilized S100b. Conditions: ligand 5 micrograms per well; fusion protein at increasing dilutions, 37° C. one hour. As for the experimental part:
(§1) For example, the RAGE fusion protein may be used in a binding assay to identify potential RAGE ligands. In one example embodiment of such a binding assay, a known RAGE ligand may coated onto a solid substrate (e.g., Maxisorb plates) at a concentration of about 5 micrograms per well, where each well contains a total volume of about 100 microliters (4). The plates may be incubated at 4° C. overnight to allow the ligand to absorb or bind to the substrate. Alternatively, shorter incubation periods at higher temperature (e.g., room temperature) may be used. […] The RAGE fusion protein bound to the immobilized ligand may be detected in a variety of ways. […] The bound complex may be detected by adding the alkaline phosphatase substrate, para-nitrophenylphosphate (PNPP), and measuring conversion of PNPP to para-nitrophenol (PNP) as an increase in absorbance at 405 nm. […] In the absence of ligand (i.e., coating with only BSA) there was no increase in absorbance. […] Binding was detected by the addition of an immunodetection complex containing a monoclonal mouse anti-human IgG1 diluted 1:11,000 to a final assay concentration (FAC) of 21 ng/100 μL, a biotinylated goat anti-mouse IgG diluted 1:500, to a FAC of […], and an avidin-linked alkaline phosphatase. […]
Background: ELISA stands for enzyme-linked immunosorbent assay.

The target in a further series is T2, amphoterin (Ampho) (Homo sapiens, UniProt P09429).
T2 sequence (P09429 1-215): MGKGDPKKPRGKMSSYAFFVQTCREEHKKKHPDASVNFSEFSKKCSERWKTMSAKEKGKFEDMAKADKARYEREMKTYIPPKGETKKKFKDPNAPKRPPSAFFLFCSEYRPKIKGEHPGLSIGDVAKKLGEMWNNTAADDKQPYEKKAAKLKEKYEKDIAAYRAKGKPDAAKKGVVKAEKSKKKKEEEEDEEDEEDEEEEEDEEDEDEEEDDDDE
The series is described as follows: In vitro ligand binding ELISA, immobilized amphoterin. Conditions: ligand 5 micrograms per well; fusion protein at increasing dilutions, 37° C. one hour. How it is done: as §1

Series [1] can be described thus: Pharmacokinetic profile of TTP-4000 after IV injection. The series is classed as in vivo, monkeys. Conditions: single IV bolus 5 mg/kg; once TTP-4000 has saturated its ligands; plasma ELISA. As for the experimental part:
Following collection, the tubes were placed on wet ice (maximum 30 minutes) until centrifugation under refrigeration (at 2 to 8° C.) at 1500×g for 15 minutes. Each harvested plasma sample was then stored frozen (−70° C.±10° C.) until assayed for RAGE polypeptide using an ELISA at various time-points following the injection, as described in Example 6.
In FIG. 12 each curve represents a different animal under the same experimental conditions.
Initially, 50 uL of the RAGE specific monoclonal antibody 1HB1011 at a concentration of 10 ug/mL in 1× PBS pH 7.3 is coated on plates via overnight incubation. When ready for use, plates are washed three times with 300 uL of 1× Imidazole-Tween wash buffer and blocked with 1% BSA. […] The samples are allowed to incubate at room temperature for one hour. After incubation, the plates are plates are washed three times. A Goat Anti-human IgG1 1 (Sigma A3312) AP conjugate in 1×PBS with 1% BSA is added and allowed to incubate at room temperature for 1 hour. The plates are washed three times. Color was elucidated with paranitrophenylphosphate.

Series [2] concerns recurrent diabetes in syngeneic NOD transplant model. Description: Syngeneic islet transplantation in NOD mice. The series is classed as in vivo. From the text:
Spontaneous autoimmune non-obese diabetic mice (NOD/LtJ) (12-25 weeks old) served as recipients for islet cells, while young pre-diabetic NOD/LtJ mice (6-7 weeks old) served as donors in syngeneic islet transplantation. Islets for transplantation were isolated as described above in Section A (Allogeneic Islet Transplantation). Diabetic NOD/LtJ mice received islet grafts within 2 days of the diagnosis of diabetes. 500-600 freshly isolated islets (approximately 550 islet equivalents) from donor mice were picked up with an infusion set and transplanted into the subcapular space of the right kidney. Test compounds were administered as soon as the islets were transplanted and continued for approximately 8 weeks. […] Islet graft function was monitored by serial blood glucose measurements daily for the first 2 weeks after islet transplantation, followed by every other day thereafter. Reversal of diabetes was defined as blood glucose less than 200 mg/dl on two consecutive measurements. Percentage graft loss was determined when blood glucose exceeded 250 mg/dl on two consecutive measurements.

[3] abbreviates: 300 ug LD + 100 ug qod ip, syngeneic islets in NOD mice.

B1: TTP-4000: four domain RAGE fusion protein: human RAGE N-terminal sequence (to position 251) linked to human IgG Fc (γ1) without hinge; SEQ ID NO: 34/56 (protein)
chain: QNITARIGEPLVLKCKGAPKKPPQRLEWKLNTGRTEAWKVLSPQGGGPWDSVARVLPNGSLFLPAVGIQDEGIFRCQAMNRNGKETKSNYRVRVYQIPGKPEIVDSASELTAGVPNKVGTCVSEGSYPAGTLSWHLDGKPLVPNEKGVSVKEQTRRHPETGLFTLQSELMVTPARGGDPRPTFSCSFSPGLPRHRALRTAPIQPRVWEPVPLEEVQLVVEPEGGAVAPPSVFLFPPKPKDTLMISRTPEVTCVVVDVSHEDPEVKFNWYVDGVEVHNAKTKPREEQYNSTYRVVSVLTVLHQDWLNGKEYKCKVSNKALPAPIEKTISKAKGQPREPQVYTLPPSRDELTKNQVSLTCLVKGFYPSDIAVEWESNGQPENNYKTTPPVLDSDGSFFLYSKLTVDKSRWQQGNVFSCSVMHEALHNHYTQKSLSLSPGK
As to B1, the “binding to immobilized S100b (increase in absorbance at 405 nm)” value with S100b (S100) is “specifically interact”. Besides, in the series with amphoterin (Ampho), the “binding to immobilized amphoterin (increase in absorbance at 405 nm)” value was “specifically interact”. Moreover, the terminal half-life result in series [1] is listed as “greater than 300 hours”. Further, in series [2] (setting [3]), the “day of graft loss for each animal” value is 40 day and 43 day and 36 day and 45 day and 44 day and 38 day (2×) and 35 day; the “day of graft loss, Mean” value turned out to be 39.875 days. Also, the “time before detection of graft failure, in words” value in series [2] (versus animals not treated at all) was “increase in the time before detection of graft failure”.

The record behind these values is patent publication US8344120B2, “Nucleic acid molecules encoding rage fusion proteins” (TransTech Pharma, Inc., priority 2006, dated 2013).
